How the values were obtained:
Human Gal3 peptides [1] = target: T1, Human Gal3 peptides (Homo sapiens, UniProt P17931); test: Gal3 peptide binding ELISA (Example 8); conditions: antibody 5 μg/mL
T1 construct: purchased LifeTein custom order
Method: (§1) Gal3 peptide binding activity of additional exemplary anti-Gal3 antibodies was assessed with the same peptides as described in FIG. 18 (SEQ ID NOs: 3-26). Human Gal3 peptides (LifeTein, custom order) and human Gal3 proteins (R&D Systems, 8259-GA; TrueBinding, QCB200349) were diluted in PBS (Corning, 21-030-CM) to concentrations of at least 100 μg/mL (peptides) or 1 μg/mL (proteins), and added to the wells of several 96-well ELISA plates (Thermo Fisher, 44-2404-21). After incubating the plates at 4° C. overnight, the plates were washed three times with PBST (PBS with 0.05% Tween 20 [VWR, 0777]). The plates were then blocked for an hour with 2% BSA (EMD Millipore, 126609) in PBST at room temperature with gentle rocking. Thereafter, the 2% BSA in PBST was discarded and Gal3-binding antibodies (reformatted hIgG4 [S228P]) were diluted in 2% BSA in PBST to concentrations of 5 μg/mL and added to the wells. The plates were incubated for an hour at room temperature with gentle rocking and then washed three times with PBST. Afterwards, Peroxidase AffiniPure F(ab′)2 Fragment Goat Anti-Human IgG (H+L) polyclonal antibody (Jackson ImmunoResearch, 109-036-003), was diluted in 2% BSA in PBST (1:4000) and added to the wells. The plates were incubated for 1 hour at room temperature with gentle rocking and then washed three times with PBST. TMB substrate (Thermo Scientific, 34029) was then added to each well. The reaction was stopped with 1M HCl (JT Baker, 5620-02) and read using a plate reader (Molecular Devices) at absorbance of 450 nm.

hGal3 peptide = target: T2, hGal3 peptide (Homo sapiens, UniProt P17931); test: Gal3 peptide library binding ELISA (Example 2)
T2 construct: a library of 24 amino acid peptides representing portions of Gal3
Method: To identify the epitopes to which Gal3 antibodies with and without Gal3-INSR blocking activity bound, a library of 24 amino acid peptides representing portions of Gal3, depicted in FIG. 18, was produced and the ability of each peptide to bind Gal3 antibodies was evaluated by ELISA. At least 2 μg/ml of hGal3 peptide in 50 μl of PBS or 0.1 μg/ml of full-length human Gal3 protein (GenScript) and human Galectin-3 protein (Acro Biosystems, GA3-H5129) were diluted in PBS (Corning, 21-030-CM) to concentrations of at least 2 μg/ml or 0.1 μg/ml, respectively, and added to the wells of a 96-well ELISA plate (Thermo Fisher, 44-2404-21). After incubating the plate at 4° C. overnight, the plate was washed three times with PBST (PBS with 0.05% Tween 20 [VWR, 0777]). The plate was then blocked for an hour with 2% BSA (EMD Millipore, 126609) in PBST at room temperature with gentle rocking. Thereafter, the 2% BSA in PBST was discarded and human Galectin-3 hybridoma supernatants or antibodies were diluted in 2% BSA in PBST to concentrations of at least 0.1 μg/ml and added to the wells. The plate was incubated for an hour at room temperature with gentle rocking and then washed three times with PBST. Afterwards, Goat Anti-Mouse IgG-HRP (Jackson ImmunoResearch, 115-036-1461) or Goat Anti-Rat IgG HRP (Abcam, ab205720) diluted in 2% BSA in PBST (1:4000) were added to the wells. The plate was incubated for 30 minutes to 1 hour at room temperature with gentle rocking and then washed three times with PBST. TMB substrate (Thermo Scientific, 34029) was then added to each well. The reaction was stopped with 1M HCl (JT Baker, 5620-02) and read using a plate reader (Molecular Devices) at absorbance of 450 nm.

human Gal3 = target: T3, human Gal3 (Homo sapiens, UniProt P17931); test: Epitope binning, sandwich format, SPR Carterra LSA (Example 8); type: binding
T3 construct: 6xHis (linker-spaced) (C); purchased AcroBio (Acro Biosystems) GA3-H5129
T3 sequence (P17931 whole entry): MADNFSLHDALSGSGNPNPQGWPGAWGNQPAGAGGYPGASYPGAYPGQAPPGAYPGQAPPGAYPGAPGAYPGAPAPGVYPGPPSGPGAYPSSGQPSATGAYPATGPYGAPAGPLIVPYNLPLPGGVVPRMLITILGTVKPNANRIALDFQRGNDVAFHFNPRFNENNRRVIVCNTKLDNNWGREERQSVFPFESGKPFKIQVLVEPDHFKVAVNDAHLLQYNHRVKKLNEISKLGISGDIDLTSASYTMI
Method: The epitope binning assay was done in a sandwich format on the high-throughput SPR-based Carterra LSA unit (CarterraBio, Salt Lake City, Utah). First, the purified antibodies were diluted to 10 μg/ml concentration in 10 mM NaOAc (pH 5.0) and then were covalently coupled via amine group to HC200M chip activated by EDC and S-NHS to immobilize antibodies to different positions of a 384-spot array. One hundred thirty-eight binning cycles were run on the array of immobilized antibodies. In each cycle, first, human Gal3 (AcroBio GA3-H5129) was injected over the entire array to bind to different antibodies (primary antibody), followed by one antibody (secondary antibody) selected among the panel of 150 anti-GAL3 antibodies tested. At the end of each cycle, the array was regenerated by 10 mM Glycine (pH 2.0) to remove bound antigen and secondary antibody from the array. The data analysis was done using the Epitope software by CarterraBio.

Human Gal3 peptides [2] = test: Gal3 peptide binding ELISA (Example 8); conditions: antibody 5 μg/mL
Method: as §1

binding to any of the tested Gal3 peptides (Human Gal3 peptides [2]) | binding to hGAL3 when immobilized on HC200M chip (human Gal3) | binding to Gal3 peptide 2 (SEQ ID NO: 4) (Human Gal3 peptides [1]) | binding to Gal3 peptide 3 (SEQ ID NO: 5) (Human Gal3 peptides [1]) | binding to Gal3 peptide 7 (amino acids 61-80, SEQ ID NO: 9) (hGal3 peptide) | Molecule | further results
– | – | – | – | – | 2D10.2B2: anti-Gal3 antibody (antibody, 2D10.2B2 heavy chain peptide sequence; 2D10.2B2 light chain peptide sequence, anti-Gal3 antibody) heavy: QVQLQQSGPELVKPGASVKISCKASGYTFTDYYINWVKQRPGQGLEWIGWIYPGSNDTKYNEKFKGKATLTVDTSSSTAYMQLGSLTSEDSAVYFCANYFGCSGWFFDVWGTGTTVTVSSAKTTPPSVYPLAPVCGDTTGSSVTLGCLVKGYFPEPVTLTWNSGSLSSGVHTFPAVLQSDLYTLSSSVTVTSSTWPSQSITCNVAHPASSTKVDKKIEPRGPTIKPCPPCKCPAPNAAGGPSVFIFPPKIKDVLMISLSPIVTCVVVDVSEDDPDVQISWFVNNVEVHTAQTQTHREDYNSTLRVVSALPIQHQDWMSGKEFKCKVNNKDLGAPIERTISKPKGSVRAPQVYVLPPPEEEMTKKQVTLTCMVTDFMPEDIYVEWTNNGKTELNYKNTEPVLDSDGSYFMYSKLRVEKKNWVERNSYSCSVVHEGLHNHHTTKSFSRTPGK light: DIVMTQAAFSNPVTLGTSASISCRSSKSLLHSDGITYLYWYLQRPGQSPQLLIYRMSNLASGVPDRFSGSGSGTDFTLRISRVEAEDVGVYYCAQMIEFPLTFGAGTILELKRADVAPTVSIFPPSSEQLTSGGASVVCFLNNFYPKDINVKWKIDGSERQNGVLNSWTDQDSKDSTYSMSSTLTLTKDEYERHNSYTCEATHKTSTSPIVKSFNRNEC | binding to Gal3 peptide 6 (SEQ ID NO: 8) (Human Gal3 peptides [1]): bound; binding to Gal3 peptide 6 (amino acids 51-70, SEQ ID NO: 8) (hGal3 peptide): bound
not found to bind | – | – | – | – | 847.11D6: anti-Gal3 antibody (antibody, V domains shown) VH: EVKLQQSGPELMKPGTSMKISCKASGYSFTGYTMNWVKQSHGKNLEWIGLINPYNGGTNYNQKFRGKATLSVDKSSNTAYMELLSLTSEDSAVYYCARKDDYYGSSPYALDYWGQGTSVTVSS VL: DIVMTQSPASLAVSLGQRATISCRASESVENHVNSFMHWFQQKPGQPPKLLIYRASNLQSGIPARFSGSGSRTDFTLTINPVEADDVATYYCQQNNEVPYTFGGGTKLEIK | epitope bin (mutual competitive binding for Gal3) (human Gal3): CRD
not found to bind | not bind | – | – | – | 847.4D3: anti-Gal3 antibody (antibody, V domains shown) VH: EVQLVESGGGLVKPGGSLKLSCAASGFTFSSYAMSWVRQTPEKRLEWVASISSGDSPYYPDSVKGRFTISRDNARNILYLQMSSLRSEDTAMYYCTRFTTVVEMDYWGQGTSVTVSS VL: DVVMTQTPKFLPITAEDRVTITCKASQSVSNEVAWYQQKPGQSPKLLIYYASNRYTGVPDRFTGSGSGTDFTFTIRSVQLEDLAVYFCQQHYSSPWTFGGGTKLEIK | –
– | – | bound | bound | bound | 7D8.2D8: anti-Gal3 antibody (antibody, 7D8.2D8 heavy chain peptide sequence; 7D8.2D8 light chain peptide sequence, anti-Gal3 antibody) heavy: EVQLVESGGGLVKPGGSLKLSCAASGFTFSSYAMSWVRQTPEKRLEWVATISDGGIYTYYPDNVKGRFTISRDNAKNNLFLQMSHLKSEDTAMYYCVRDGGYWGQGTTLTVSSAKTTPPSVYPLAPVCGDTTGSSVTLGCLVKGYFPEPVTLTWNSGSLSSGVHTFPAVLQSDLYTLSSSVTVTSSTWPSQSITCNVAHPASSTKVDKKIEPRGPTIKPCPPCKCPAPNAAGGPSVFIFPPKIKDVLMISLSPIVTCVVVDVSEDDPDVQISWFVNNVEVHTAQTQTHREDYNSTLRVVSALPIQHQDWMSGKEFKCKVNNKDLGAPIERTISKPKGSVRAPQVYVLPPPEEEMTKKQVTLTCMVTDFMPEDIYVEWTNNGKTELNYKNTEPVLDSDGSYFMYSKLRVEKKNWVERNSYSCSVVHEGLHNHHTTKSFSRTPGK light: DVLMTQTPLSLPVSLGDQASISCRSSQSIVHSNGNTYLEWYLQKPGQSPKLLIYKVSNRFSGVPDRFSGSGSGTDFTLKISRVEAEDLGVYYCFQGSHVPLTFGAGTKLELKRADVAPTVSIFPPSSEQLTSGGASVVCFLNNFYPKDINVKWKIDGSERQNGVLNSWTDQDSKDSTYSMSSTLTLTKDEYERHNSYTCEATHKTSTSPIVKSFNRNEC | binding to Gal3 peptide 17 (SEQ ID NO: 19) (Human Gal3 peptides [1]): bound
– | – | bound | bound | bound | 15F10.2D6: anti-Gal3 antibody (antibody, 15F10.2D6 heavy chain peptide sequence; 15F10.2D6 light chain peptide sequence, anti-Gal3 antibody) heavy: EVQLVESGGGLVKPGGSLKLSCAASGFAFSSYAMSWVRQTPEKRLEWVATISDGGVYTYYTDHVKGRFTISRDNAEDNLYLQMSHLKSEDTAMYYCVRDGGYWGQGTTLTVSSAKTTPPSVYPLAPVCGDTTGSSVTLGCLVKGYFPEPVTLTWNSGSLSSGVHTFPAVLQSDLYTLSSSVTVTSSTWPSQSITCNVAHPASSTKVDKKIEPRGPTIKPCPPCKCPAPNAAGGPSVFIFPPKIKDVLMISLSPIVTCVVVDVSEDDPDVQISWFVNNVEVHTAQTQTHREDYNSTLRVVSALPIQHQDWMSGKEFKCKVNNKDLGAPIERTISKPKGSVRAPQVYVLPPPEEEMTKKQVTLTCMVTDFMPEDIYVEWTNNGKTELNYKNTEPVLDSDGSYFMYSKLRVEKKNWVERNSYSCSVVHEGLHNHHTTKSFSRTPGK light: DVLMTQTPLSLPVSLGDQASISCRSSQSIVHNNGNTYLEWYLQKPGQSPKLLIYKVSNRFSGVPDRFSGSGSGTDFTLKISRVEAEDLGVYYCFQGSHVPLTFGGGTKLELKRADVAPTVSIFPPSSEQLTSGGASVVCFLNNFYPKDINVKWKIDGSERQNGVLNSWTDQDSKDSTYSMSSTLTLTKDEYERHNSYTCEATHKTSTSPIVKSFNRNEC | binding to Gal3 peptide 4 (SEQ ID NO: 6) (Human Gal3 peptides [1]): bound
not found to bind | not bind | – | – | – | 849.4F12: anti-Gal3 antibody (antibody, V domains shown) VH: QVQLKESGPGILQPSQTLSLTCSFSGFSLSTFGMGVGWIRQPSGKGLEWLAHIWWDDDKHYNPALKSRLTISKDTSKNQVFLRIANVDTADNATYYCARIDYGDYVGFAYWGQGTLVTVSA VL: DILLTQSPSSMSVSLGDTVSITCHASQGINSNIGWLQQKPGKSFKGLIYHGTNLEDGVPSRFSGSGSGADYSLTISSLESEDFADYYCVQYDQFPWTFGGGTKLEIK | –

Reference: US20220411514A1, “ANTI-GAL3 ANTIBODIES AND METHODS OF USE FOR INSULIN RESISTANCE” (TrueBinding, Inc., priority 2021, published 2022)
